Patent US20220282268A1 (UNIVERSITY COURT OF THE UNIVERSITY OF EDINBURGH, published 2022)

Experiments:
[1] = target: T1, C. reinhardtii Rubisco small subunit 1 (S1Cr), mature (Chlamydomonas reinhardtii, UniProt P00873 46-185); test: yeast two-hybrid (FIG. 4J)
T1 construct: also called RbcS1; Cre02.g120100.t1.2
Protocol: (§1) Competent yeast cells (Y2H Gold, Clontech) were prepared from a 50 ml culture grown in YPDA medium supplemented with kanamycin (50 μg ml⁻¹). Cells were washed with ddH2O and a lithium acetate/TE solution (100 mM LiAc, 10 mM Tris-HCl [pH 7.5], 1 mM EDTA) before re-suspending in lithium acetate/TE solution. Cells were then co-transformed with binding and activation domain vectors by mixing 50 μl of competent cells with 1 μg of each plasmid vector and a PEG solution (100 mM LiAc, 10 mM Tris-HCl [pH 7.5], 1 mM EDTA, 40% [v/v] PEG 4000). Cells were incubated at 30° C. for 30 min, then subjected to a heat shock of 42° C. for 20 min. The cells were centrifuged, re-suspended in 500 μl YPDA and incubated at 30° C. for ca 90 min, then centrifuged and washed in TE (10 mM Tris-HCl [pH 7.5], 1 mM EDTA). The pellet was re-suspended in 200 μl TE, spread onto SD-L-W (standard dextrose medium (minimal yeast medium) lacking leucine and tryptophan, Anachem) and grown for 3 days at 30° C. Ten to fifteen of the resulting colonies were pooled per co-transformation and grown in a single culture for 24 hrs. The following day 1 ml of culture was harvested, cell density (OD₆₀₀) measured, centrifuged and then diluted in TE to give a final OD₆₀₀ of 0.5 or 0.1.
(§2) Yeast cultures were then plated onto SD-L-W (yeast synthetic minimal media lacking leucine (L) and tryptophan (W)) and SD-L-W-H (yeast synthetic minimal media lacking L, W, and histidine(H)) (Anachem). Yeast expressing both binding and activation domain constructs was grown on SD-L-W to confirm presence of both plasmids. To assess interaction strength, yeast was plated onto SD-L-W-H with differing concentrations of the HIS3 inhibitor 3-aminotriazole (3-AT). These plates were then incubated for 3 days before assessing for presence or absence of growth, to perform a semi-quantitative yeast two-hybrid assay as in van Nues and Beggs (van Nues and Beggs, Genetics (2000) 157: 1451-1467). The same yeast transformation was used for each interaction study. Different colonies on the same yeast transformation plate were considered independent biological replicates (as for E. coli). Two biological replicates (top and bottom row for each interaction) were spotted from different liquid culture concentrations (0.5 and 0.1 OD). Each interaction experiment was performed at least twice.

[2] = target: T1, C. reinhardtii Rubisco small subunit 1 …; test: yeast two-hybrid (FIG. 5E)
Protocol: as §1, §2

[3] = target: T2, 1AAtMOD (α-helices): A. thaliana SSU 1A with its two α-helices replaced with C. reinhardtii α-helices (Arabidopsis thaliana with parts of …); test: yeast two-hybrid (FIG. 5E)
T2 construct: also called pGADT7_1AAtMOD(α-helices); hybrid 1A SSU
Protocol: as §1, §2

[4] = target: T3, 1AAt::YFP^C (A. thaliana SSU 1A fused at the C-terminus to YFP^C) (Arabidopsis thaliana, UniProt P10795 56-180); test: BiFC in N. benthamiana
Protocol: (§3) Bimolecular fluorescence complementation analysis (BiFC) was carried out to provide additional information about the EPYC1-Rubisco interaction in vivo. Three Rubisco SSUs (1AAt, S2Cr and 1AAtMOD) and EPYC1, each fused at the C-terminus to either YFP^N or YFP^C were transiently co-expressed in N. benthamiana (Walter, et al., Plant J. (2004) 40: 428-438).

[5] = target: 1AAt::YFP^N (A. thaliana SSU 1A fused at the C-terminus to YFP^N) (Arabidopsis thaliana, UniProt P10795 56-180); test: BiFC in N. benthamiana; a YFP signal was seen and is put down to self-assembly of the split YFP halves
Protocol: as §3

[6] = target: T3, 1AAt::YFP^C (A. thaliana SSU 1A fused …); test: as above
Protocol: as §3

| Binder | binding result [1] | binding result [2] | further results |
| --- | --- | --- | --- |
| EPYC1 N-terminus, first and second repeat regions (N-ter+2reps) (other, also called pGBKT7_N-ter + 2reps EPYC1) MATISSMRVGAASRVVVSGRVKTVKVAARGSWRESSTATVQASRASSATNRVSPTRSVLPANWRQELESLRNGNGSSSAASSAPAPARSSSASWRDAAPASSAPARSSSASKKAVTPSRSALPSNWKQELESLRSSSPAPASSAPAPARSSSASWRDAAPASSAPARSSSSKKA | binds | – | – |
| synthetic EPYC1 1 rep (first repeat region of EPYC1, one copy) (other, also called native 1 rep variant; EPYC1 1 rep (wildtype)) VSPTRSVLPANWRQELESLRNGNGSSSAASSAPAPARSSSASWRDAAPASSAPARSSSASKKA | – | binds | – |
| synthetic EPYC1 modified α-helix 1 rep (first repeat region with a G-Q substitution near the α-helix) (designed binder, also called pGBKT7_synthEPYC1 modified α-helix 1rep) VSPTRSVLPANWRQELESLRNQNGSSSAASSAPAPARSSSASWRDAAPASSAPARSSSASKKA | – | binds | – |
| synthetic EPYC1 α-helix knockout A (first repeat region with a point mutation in the α-helix) (designed binder, also called pGBKT7_synthEPYC1 α-helix knockout 1 (probably)) VSPTRSVLPANWRQELESRRNGNGSSSAASSAPAPARSSSASWRDAAPASSAPARSSSASKKA | – | no binding | – |
| synthetic EPYC1 α-helix knockout B (first repeat region with a point mutation in the α-helix) (designed binder, also called pGBKT7_synthEPYC1 α-helix knockout 2 (probably)) VSPTRSVLPANWRQWLESLRNGNGSSSAASSAPAPARSSSASWRDAAPASSAPARSSSASKKA | – | no binding | – |
| EPYC1 N-terminus plus first repeat region (N-ter+1rep) (other, also called pGBKT7_N-ter + 1rep EPYC1) MATISSMRVGAASRVVVSGRVKTVKVAARGSWRESSTATVQASRASSATNRVSPTRSVLPANWRQELESLRNGNGSSSAASSAPAPARSSSASWRDAAPASSAPARSSSASKKA | binds | – | – |
| synthetic EPYC1 4 reps (four tandem copies of the first repeat region) (designed binder, also called pGBKT7_synthEPYC1 4reps) VSPTRSVLPANWRQELESLRNGNGSSSAASSAPAPARSSSASWRDAAPASSAPARSSSASKKAVSPTRSVLPANWRQELESLRNGNGSSSAASSAPAPARSSSASWRDAAPASSAPARSSSASKKAVSPTRSVLPANWRQELESLRNGNGSSSAASSAPAPARSSSASWRDAAPASSAPARSSSASKKAVSPTRSVLPANWRQELESLRNGNGSSSAASSAPAPARSSSASWRDAAPASSAPARSSSASKKA | – | binds | binding result [3]: binds |
| AtCP12::YFP^N (A. thaliana CP12 fused at the C-terminus to YFP^N) (other, Negative control of the BiFC assay; also called pICH47732_CP12At::YFP^N; not shown: YFP^N half of split YFP) AAPEGGISDVVEKSIKEAQETCAGDPVSGECVAAWDEVEELSAAASHARDKKKADGSDPLEEYCKDNPETNECRTYDN | – | – | binding result [4]: no binding |
| EPYC1 N-terminus (N-ter) (other, also called pGBKT7_N-ter EPYC1) MATISSMRVGAASRVVVSGRVKTVKVAARGSWRESSTATVQASRASSATNR | no binding | – | – |
| EPYC1 N-terminus, first to third repeat regions (N-ter+3reps) (other, also called pGBKT7_N-ter + 3reps EPYC1) MATISSMRVGAASRVVVSGRVKTVKVAARGSWRESSTATVQASRASSATNRVSPTRSVLPANWRQELESLRNGNGSSSAASSAPAPARSSSASWRDAAPASSAPARSSSASKKAVTPSRSALPSNWKQELESLRSSSPAPASSAPAPARSSSASWRDAAPASSAPARSSSSKKAVTPSRSALPSNWKQELESLRSSSPAPASSAPAPARSSSASWRDAAPASSAPARSSSASKKA | binds | – | – |
| EPYC1::YFP^C (EPYC1 fused at the C-terminus to YFP^C, with 1AAt transit peptide) (other, Expressed transiently in N. benthamiana with the 1AAt transit peptide at the N-terminus; processing in the plant not determined; also called pB7_1AAtTP::EPYC1::YFP^C; not shown: YFP^C half of split YFP (primer name YFPc155)) MATISSMRVGAASRVVVSGRVKTVKVAARGSWRESSTATVQASRASSATNRVSPTRSVLPANWRQELESLRNGNGSSSAASSAPAPARSSSASWRDAAPASSAPARSSSASKKAVTPSRSALPSNWKQELESLRSSSPAPASSAPAPARSSSASWRDAAPASSAPARSSSSKKAVTPSRSALPSNWKQELESLRSSSPAPASSAPAPARSSSASWRDAAPASSAPARSSSASKKAVTPSRSALPSNWKQELESLRSNSPAPASSAPAPARSSSASWRDAPASSSSSSADKAGTNPWTGKSKPEIKRTALPADWRKGL | – | – | binding result [5]: no binding |
| EPYC1::YFP^N (EPYC1 fused at the C-terminus to YFP^N, with 1AAt transit peptide) (other, Expressed transiently in N. benthamiana with the 1AAt transit peptide at the N-terminus; processing in the plant not determined; also called pB7_1AAtTP::EPYC1::YFP^N; not shown: YFP^N half of split YFP (primer name YFPn173)) MATISSMRVGAASRVVVSGRVKTVKVAARGSWRESSTATVQASRASSATNRVSPTRSVLPANWRQELESLRNGNGSSSAASSAPAPARSSSASWRDAAPASSAPARSSSASKKAVTPSRSALPSNWKQELESLRSSSPAPASSAPAPARSSSASWRDAAPASSAPARSSSSKKAVTPSRSALPSNWKQELESLRSSSPAPASSAPAPARSSSASWRDAAPASSAPARSSSASKKAVTPSRSALPSNWKQELESLRSNSPAPASSAPAPARSSSASWRDAPASSSSSSADKAGTNPWTGKSKPEIKRTALPADWRKGL | – | – | binding result [6]: no binding |
| EPYC1 N-terminus and all four repeat regions (N-ter+4reps) (other, also called pGBKT7_N-ter + 4reps EPYC1) MATISSMRVGAASRVVVSGRVKTVKVAARGSWRESSTATVQASRASSATNRVSPTRSVLPANWRQELESLRNGNGSSSAASSAPAPARSSSASWRDAAPASSAPARSSSASKKAVTPSRSALPSNWKQELESLRSSSPAPASSAPAPARSSSASWRDAAPASSAPARSSSSKKAVTPSRSALPSNWKQELESLRSSSPAPASSAPAPARSSSASWRDAAPASSAPARSSSASKKAVTPSRSALPSNWKQELESLRSNSPAPASSAPAPARSSSASWRDAPASSSSSSADKA | binds | – | – |
| synthetic EPYC1 2 α-helices 1 rep (first repeat region with an additional α-helix inserted) (designed binder, also called pGBKT7_synthEPYC1 2α-helices 1rep) VSPTRSVLPANWRQELESLRNNWRQELESLRNGNGSSSAASSAPAPARSSSASWRDAAPASSAPARSSSASKKA | – | no binding | – |
| GTNPWTGKSKPEIKRTALPADWRKGL (also called C-terminal tail; pGBKT7_C-ter EPYC1) [EPYC1 C-terminus (C-ter)] | binds | – | – |
